# Changes are numbered by the printed parent chain.
# B1: FG88.2 mAb (antibody, V domains shown)
# VH: EVKLEESGGGLVQPGGSMKLSCAASGFTFSDAWMNWVRQSPEKGLEWVAEIRSKVINPAIYYAESVKERFTILRDDSKSSVYLQMNSLRAEDTGIYYCSRSTMITTRDPSRYFDVWGAGTTVTVSS
# VL: DIQMTQSPTSLSASVGETVTITCRTSENIHNFLTWYQQKQGKSPQVLVYNAKTLPDGVPSRFSGSGSGTQYSLKINSLQPEDFGTYYCQHFWSSPWTFGGGTKLEIKR
# B2: FG88.7 mAb (antibody, V domains shown)
# VH: B1 VH with A23V, V55A, E68G
# VL: B1 VL with G68E
# Tests used:
# CD55 [1] = target: CD55 (UniProt P08174); assay: indirect immunofluorescence flow cytometry on Colo205 colorectal tumour cells, mAb 5 µg/ml
# CD55 [2] = target: CD55 (UniProt P08174); assay: indirect immunofluorescence flow cytometry on OAW42 ovarian tumour cells, mAb 5 µg/ml
# CD55 [3] = target: CD55 (UniProt P08174); assay: indirect immunofluorescence flow cytometry on OVCA433 ovarian tumour cells, mAb 5 µg/ml
# CD55 [4] = target: CD55 (UniProt P08174); assay: indirect immunofluorescence flow cytometry on Colo201 colorectal tumour cells, mAb 5 µg/ml
# CD55 [5] = target: CD55 (UniProt P08174); assay: indirect immunofluorescence flow cytometry on Panc1 pancreatic tumour cells, mAb 5 µg/ml
# CD55 [6] = target: CD55 (UniProt P08174); assay: indirect immunofluorescence flow cytometry on MKN45 gastric tumour cells, mAb 5 µg/ml
# CD55 [7] = target: CD55 (UniProt P08174); assay: indirect immunofluorescence flow cytometry on HT29 colorectal tumour cells, mAb 5 µg/ml
# CD55 [8] = target: CD55 (UniProt P08174); assay: indirect immunofluorescence flow cytometry on AGS gastric tumour cells, mAb 5 µg/ml
# CD55 [9] = target: CD55 (UniProt P08174); assay: indirect immunofluorescence flow cytometry on C170 colorectal tumour cells, mAb 5 µg/ml
# CD55 [10] = target: CD55 (UniProt P08174); assay: indirect immunofluorescence flow cytometry on H69 lung tumour cells, mAb 5 µg/ml
# CD55 [11] = target: CD55 (UniProt P08174); assay: indirect immunofluorescence flow cytometry on ST16 gastric tumour cells, mAb 5 µg/ml
# CD55 [12] = target: CD55 (UniProt P08174); assay: indirect immunofluorescence flow cytometry on ASPC1 pancreatic tumour cells, mAb 5 µg/ml
# CD55 [13] = target: CD55 (UniProt P08174); assay: indirect immunofluorescence flow cytometry on OVCAR4 ovarian tumour cells, mAb 5 µg/ml
# CD55 [14] = target: CD55 (UniProt P08174); assay: indirect immunofluorescence flow cytometry on MB-MDA-231 breast tumour cells, mAb 5 µg/ml
# CD55 [15] = target: CD55 (UniProt P08174); assay: indirect immunofluorescence flow cytometry on MCF7 breast tumour cells, mAb 5 µg/ml
# CD55 [16] = target: CD55 (UniProt P08174); assay: indirect immunofluorescence flow cytometry on OVCAR3 ovarian tumour cells, mAb 5 µg/ml
# [17] = target: human class I histocompatibility antigens (HLA-A,B,C) (human); assay: indirect immunofluorescence flow cytometry on Colo205 cells; mouse IgG at 5 µg/ml [d]
# [18] = target: human class I histocompatibility antigens (HLA-A,B,C) (human); assay: indirect immunofluorescence flow cytometry on Panc1 pancreatic tumour cells, mAb 1 µg/ml
# [19] = target: human class I histocompatibility antigens (HLA-A,B,C) (human); assay: indirect immunofluorescence flow cytometry on MCF7 breast tumour cells, mAb 1 µg/ml
# [20] = target: human class I histocompatibility antigens (HLA-A,B,C) (human); assay: indirect immunofluorescence flow cytometry on AGS gastric tumour cells, mAb 1 µg/ml
# [21] = target: human class I histocompatibility antigens (HLA-A,B,C) (human); assay: indirect immunofluorescence flow cytometry on H69 lung tumour cells, mAb 1 µg/ml
# [22] = target: human class I histocompatibility antigens (HLA-A,B,C) (human); assay: indirect immunofluorescence flow cytometry on OVCA433 ovarian tumour cells, mAb 1 µg/ml
# [23] = target: human class I histocompatibility antigens (HLA-A,B,C) (human); assay: indirect immunofluorescence flow cytometry on C170 colorectal tumour cells, mAb 1 µg/ml
# [24] = target: human class I histocompatibility antigens (HLA-A,B,C) (human); assay: indirect immunofluorescence flow cytometry on MB-MDA-231 breast tumour cells, mAb 1 µg/ml
# [25] = target: human class I histocompatibility antigens (HLA-A,B,C) (human); assay: indirect immunofluorescence flow cytometry on OVCAR3 ovarian tumour cells, mAb 1 µg/ml
# [26] = target: human class I histocompatibility antigens (HLA-A,B,C) (human); assay: indirect immunofluorescence flow cytometry on Colo201 colorectal tumour cells, mAb 1 µg/ml
# [27] = target: human class I histocompatibility antigens (HLA-A,B,C) (human); assay: indirect immunofluorescence flow cytometry on ST16 gastric tumour cells, mAb 1 µg/ml
# [28] = target: human class I histocompatibility antigens (HLA-A,B,C) (human); assay: indirect immunofluorescence flow cytometry on OVCAR4 ovarian tumour cells, mAb 1 µg/ml
# [29] = target: human class I histocompatibility antigens (HLA-A,B,C) (human); assay: indirect immunofluorescence flow cytometry on ASPC1 pancreatic tumour cells, mAb 1 µg/ml
# [30] = target: human class I histocompatibility antigens (HLA-A,B,C) (human); assay: indirect immunofluorescence flow cytometry on Colo205 cells; W6/32 at 5 µg/ml [c]
# [31] = target: human class I histocompatibility antigens (HLA-A,B,C) (human); assay: indirect immunofluorescence flow cytometry on DU4475 breast tumour cells, mAb 1 µg/ml
# [32] = target: human class I histocompatibility antigens (HLA-A,B,C) (human); assay: indirect immunofluorescence flow cytometry on OAW42 ovarian tumour cells, mAb 1 µg/ml
# [33] = target: human class I histocompatibility antigens (HLA-A,B,C) (human); assay: indirect immunofluorescence flow cytometry on Colo205 colorectal tumour cells, mAb 1 µg/ml
# [34] = target: human class I histocompatibility antigens (HLA-A,B,C) (human); assay: indirect immunofluorescence flow cytometry on MKN45 gastric tumour cells, mAb 1 µg/ml
# [35] = target: human class I histocompatibility antigens (HLA-A,B,C) (human); assay: indirect immunofluorescence flow cytometry on HT29 colorectal tumour cells, mAb 1 µg/ml
# Polyvalent Le^a-HSA = assay: SPR (Biacore X), polyvalent Le^a-HSA coupled to CM5 chip, mAb in flow
# UniProt P08174, sequence (P08174 35-353 limits assumed): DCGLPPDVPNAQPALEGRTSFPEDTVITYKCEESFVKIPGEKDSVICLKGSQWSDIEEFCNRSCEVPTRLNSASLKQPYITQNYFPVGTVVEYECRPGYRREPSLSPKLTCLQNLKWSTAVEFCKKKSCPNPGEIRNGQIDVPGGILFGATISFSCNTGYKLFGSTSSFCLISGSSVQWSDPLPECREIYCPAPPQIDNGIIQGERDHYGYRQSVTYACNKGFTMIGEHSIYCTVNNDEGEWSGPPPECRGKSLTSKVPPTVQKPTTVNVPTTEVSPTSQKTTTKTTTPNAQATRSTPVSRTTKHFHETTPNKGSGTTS
molecule,measurement,setting,value
791T/36 (antibody),Gm value,CD55 [1],44.4 Gm
same,Gm value,CD55 [2],401 Gm
same,Gm value,CD55 [3],686 Gm
same,Gm value,CD55 [4],22.3 Gm
same,Gm value,CD55 [5],472 Gm
same,Gm value,CD55 [6],231 Gm
same,Gm value,CD55 [7],916 Gm
same,Gm value,CD55 [8],1880 Gm
same,Gm value,CD55 [9],858 Gm
same,Gm value,CD55 [10],28.1 Gm
same,Gm value,CD55 [11],903 Gm
same,Gm value,CD55 [12],7010 Gm
same,Gm value,CD55 [13],328 Gm
same,Gm value,CD55 [14],1160 Gm
same,Gm value,CD55 [15],461 Gm
same,Gm value,CD55 [16],412 Gm
IgG Isotype control (antibody),Gm,[17],25.4
W6/32 (antibody),Gm value,[18],20.1 Gm
same,Gm value,[19],515 Gm
same,Gm value,[20],1560 Gm
same,Gm value,[21],109 Gm
same,Gm value,[22],6790 Gm
same,Gm value,[23],16.5 Gm
same,Gm value,[24],758 Gm
same,Gm value,[25],633 Gm
same,Gm value,[26],603 Gm
same,Gm value,[27],33.5 Gm
same,Gm value,[28],16.4 Gm
same,Gm value,[29],1780 Gm
same,Gm,[30],2600
same,Gm value,[31],1360 Gm
same,Gm value,[32],318 Gm
same,Gm value,[33],1300 Gm
same,Gm value,[34],15.4 Gm
same,Gm value,[35],1160 Gm
B1,Kd,Polyvalent Le^a-HSA,0.63 nM
same,koff,Polyvalent Le^a-HSA,0.000118 s⁻¹
same,kon,Polyvalent Le^a-HSA,190000 M⁻¹ s⁻¹
B2,Kd,Polyvalent Le^a-HSA,0.34 nM
same,koff,Polyvalent Le^a-HSA,5.8e-05 s⁻¹
same,kon,Polyvalent Le^a-HSA,170000 M⁻¹ s⁻¹
